According to patent US20140341937A1 (US Dept. of Health and Human Services, published 2014):

Assays:
CCR8 = molecular target: T1, CCR8 (human, UniProt P51685 1-355); assay: flow cytometry on receptor-expressing cells
T1 construct: whole, on cells; also called human CCR8; HEK/CCR8

CCR4 = molecular target: T2, CCR4 (human, UniProt P51679 1-360); assay: flow cytometry on CEM cells, anti-EDN antibody detection
T2 construct: whole, on cells; also called human CCR4; CCR4 on CEM cells
T2 sequence (looked up): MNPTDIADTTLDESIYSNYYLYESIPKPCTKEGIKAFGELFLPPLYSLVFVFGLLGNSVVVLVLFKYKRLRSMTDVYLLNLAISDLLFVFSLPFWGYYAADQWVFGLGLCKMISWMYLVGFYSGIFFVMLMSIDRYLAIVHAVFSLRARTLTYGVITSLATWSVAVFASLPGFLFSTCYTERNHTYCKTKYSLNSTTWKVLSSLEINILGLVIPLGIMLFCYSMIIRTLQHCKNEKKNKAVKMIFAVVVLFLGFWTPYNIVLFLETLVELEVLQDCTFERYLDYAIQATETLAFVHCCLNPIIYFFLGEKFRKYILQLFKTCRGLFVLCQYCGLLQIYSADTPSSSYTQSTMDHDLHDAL

T1 sequence (P51685 whole entry): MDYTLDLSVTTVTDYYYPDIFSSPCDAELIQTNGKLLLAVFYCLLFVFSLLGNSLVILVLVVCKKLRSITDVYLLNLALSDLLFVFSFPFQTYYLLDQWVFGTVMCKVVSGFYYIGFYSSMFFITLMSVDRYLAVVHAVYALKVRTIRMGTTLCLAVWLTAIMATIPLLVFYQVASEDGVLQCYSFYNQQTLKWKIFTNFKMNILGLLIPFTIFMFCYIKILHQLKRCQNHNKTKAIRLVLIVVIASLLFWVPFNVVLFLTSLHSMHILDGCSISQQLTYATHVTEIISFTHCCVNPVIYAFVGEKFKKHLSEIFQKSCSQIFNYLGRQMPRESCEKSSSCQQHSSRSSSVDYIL

B1: eosinophil-derived neurotoxin (EDN) (enzyme, human, UniProt P10153 28-161, looked up)
chain: KPPQFTWAQWFETQHINMTSQQCTNAMQVINNYQRRCKNQNTFLLTTFANVVNVCGNPNMTCPSNKTRKNCHHSGSQVPLIHCNLTTPSPQNISNCRYAQTPANMFYIVACDNRDQRRDPPQYPVVPVHLDRII
notes: Unfused control protein; also called EDN alone; toxin alone
binding result (CCR8): no binding | binding result (CCR4): no binding (tested: 50 µg/ml)
